Here are results for one substance from article PMC10921019.

Experiment [1] concerns the target Parkin WT (pSer 65) (human) (UniProt O60260).
Experiment [2] deals with Human wild type Parkin 1-465 (human) (UniProt O60260).
The target in a further experiment is Parkin [F146A] (human) (UniProt O60260).
In the next experiment the target is Parkin [W403A] (human) (UniProt O60260).

Turning to “p-Ubiquitin-His (pSer65-ubiquitin-6His) (natural protein)”, in experiment [1], the Ub-K formation %, MALDI-TOF discharge assay of p-Parkin without or with p-Ub-His (100, 500, 2500 nM) (% Ub-K formation) amounted to 78 and the residual Ub % after 10 min, MALDI-TOF auto-ubiquitylation assay of p-Parkin without or with p-Ub-His (100, 500, 2500 nM) (% residual Ub) came out at 31.5. In experiment [2], this substance showed an EC50 of p-Ub-His for the activation of Parkin, MALDI-TOF auto-ubiquitylation assay (500 nM Parkin, 0.05-5 μM p-Ub-His, 30 min) of 2000 nM and an EC50 of p-Ub-His for the activation of Parkin, MALDI-TOF discharge assay (500 nM Parkin, 0.05-5 μM p-Ub-His, 30 min) of 1400 nM. In the experiment with Parkin [F146A] (human), this substance showed an EC50 of p-Ub-His for the activation of Parkin, MALDI-TOF auto-ubiquitylation assay (500 nM Parkin, 0.05-5 μM p-Ub-His, 30 min) of 400 nM and an EC50 of p-Ub-His for the activation of Parkin, MALDI-TOF discharge assay (500 nM Parkin, 0.05-5 μM p-Ub-His, 30 min) of 600 nM. In the experiment with Parkin [W403A] (human), the EC50 of p-Ub-His for the activation of Parkin, MALDI-TOF auto-ubiquitylation assay (500 nM Parkin, 0.05-5 μM p-Ub-His, 30 min) came to 200 nM and the EC50 of p-Ub-His for the activation of Parkin, MALDI-TOF discharge assay (500 nM Parkin, 0.05-5 μM p-Ub-His, 30 min) turned out to be 500 nM.
